# Experimental data as given in the DeepSol protein solubility set.
# Experiment: soluble on expression in E. coli; label from the status in PepcDB or PDB records
row,Sequence,soluble on expression in E. coli
1,MNDHIHRVPALTEEEIDSVAIKTFERYALPSSSSVKRKGKGVTILWFRNDLRVLDNDALYKAWSSSDTILPVYCLDPRLFHTTHFFNFPKTGALRGGFLMECLVDLRKNLMKRGLNLLIRSGKPEEILPSLAKDFGARTVFAHKETCSEEVDVERLVNQGLKRVGNSTKLELIWGSTMYHKDDLPFDVFDLPDVYTQFRKSVEAKCSIRSSTRIPLSLGPTPSVDDWGDVPTLEKLGVEPQEVTRGMRFVGGESAGVGRVFEYFWKKDLLKVYKETRNGMLGPDYSTKFSPWLAFGCISPRFIYEEVQRYEKERVANNSTYWVLFELIWRDYFRFLSIKCGNSLFHLGGPRNVQGKWSQDQKLFESWRDAKTGYPLIDANMKELSTTGFMSNRGRQIVCSFLVRDMGLDWRMGAEWFETCLLDYDPCSNYGNWTYGAGVGNDPREDRYFSIPKQAQNYDPEGEYVAFWLQQLRRLPKEKRHWPGRLMYMDTVVPLKHGNGPMAGGSKSGGGFRGSHSGRRSRHNGP,soluble
2,MNDTSFENCIKCTVCTTACPVSRVNPGYPGPKQAGPDGERLRLKDGALYDEALKYCINCKRCEVACPSDVKIGDIIQRARAKYDTTRPSLRNFVLSHTDLMGSVSTPFAPIVNTATSLKPVRQLLDAALKIDHRRTLPKYSFGTFRRWYRSIAAQQAQYKDQVAFFHGCFVNYNHPQLGKDLIKVLNAMGTGVQLLSKEKCCGVPLIANGFTDKARKQAITNVESIREAVGVKGIPVIATSSTCTFALRDEYPEVLNVDNKGLRDHIELATRWLWRKLDEGKTLPLKPLPLKVVYHTPCHMEKMGWTLYTLELLRNIPGLELTVLDSQCCGIAGTYGFKKENYPTSQAIGAPLFRQIEESGADLVVTDCETCKWQIEMSTSLRCEHPITLLAQALA,not soluble
3,MNELVFLHSQYIEEEPYTTDEVIAKYSQIKRESVSKLIKKYQKDLEEFGKVGFEIRAMESGQKAKFYQLNEEQATLLITYLDNTEPVRRFKKALVRQFYDMKNGLYARRMERQKEKSVRKSMTDVIKELGLSPHYYKHYTDLVYKTALGFNAKQLREAREVSKKSTILDFLTSEEIEAVNKREQQVATLLTLKMDYDTIKSILNGQGVLYQTTLKMPVATN,not soluble
4,MNFIIEPGSLADIDELERLYDELNDHLSATINYPGWIKGIYPVRENAAAGVDDNSLFVARCDGRIAGSVILDHQPEKAYENIVWKIDADYSYIFVVRTFVVHPSFLQMGVGHALMDFSLELALKSEMKSIRLDVYEKNLPAISLYEKCGFEYIDTVDLGLGHYGLDWFKLYEKVI,not soluble
5,MNGDDTFARRPTVGAQIPEKIQKAFDDIAKYFSKEEWEKMKVSEKIVYVYMKRKYEAMTKLGFKAILPSFMRNKRVTDFQGNDFDNDPNRGNQVQRPQMTFGRLQGIFPKIMPKKPAEEGNVSKEVPEASGPQNDGKQLCPPGKPTTSEKINMISGVLQRYCRFGSRPLQ,soluble
6,MNGELYLKKGLLQLNKKLYDEALATLNKVIELDDDLASLTSAKCILGEYYFIHQNYEKSKEFLSWICDRQDELEEEFDDLLSEEINTASVLMELIEKYKL,not soluble
7,MNGLATSLGKGQESAIGGSSAIGEYIRPLPQPGDRPEPLSAKPTFLSRSGSARCRSESDMENERNSNTSKQRYSGKVHLCVARYSYNPFDGPNENPEAELPLTAGKYLYVYGDMDEDGFYEGELLDGQRGLVPSNFVDFVQDNESRLASTLGNEQDQNFINHSGIGLEGEHILDLHSPTHIDAGITDNSAGTLDVNIDDIGEDIVPYPRKITLIKQLAKSVIVGWEPPAVPPGWGTVSSYNVLVDKETRMNLTLGSRTKALIEKLNMAACTYRISVQCVTSRGSSDELQCTLLVGKDVVVAPSHLRVDNITQISAQLSWLPTNSNYSHVIFLNEEEFDIVKAARYKYQFFNLRPNMAYKVKVLAKPHQMPWQLPLEQREKKEAFVEFSTLPAGPPAPPQDVTVQAGVTPATIRVSWRPPVLTPTGLSNGANVTGYGVYAKGQRVAEVIFPTADSTAVELVRLRSLEAKGVTVRTLSAQGESVDSAVAAVPPELLVPPTPHPRPAPQSKPLASSGVPETKDEHLGPHARMDEAWEQSRAPGPVHGHMLEPPVGPGRRSPSPSRILPQPQGTPVSTTVAKAMAREAAQRVAESSRLEKRSVFLERSSAGQYAASDEEDAYDSPDFKRRGASVDDFLKGSELGKQMVS,not soluble
8,MNGLLKYSFPICFSLLALFACEDDGIDVDNIEVPAGFALSAGTATNFLTSSYAYDRSADWITGAYDKRFTRGDKLYDDIRTSSNGIGGGLGPVYAGYSCGSCHRNAGRTQPTLWSEGGSGSSGFSSMLVYISRKNGAFFQDYGRVLHDQAIYGVKPEGKLKVEYTYETFQFPDGETYELCKPNYSIYEWYADSIKPEDLFCTVRIPLRHVGMGQMMALDPTEIEALAAKSNYPEYGISGRCNYISERGMRSLGLSGNKAQHADLTVELGFSSDMGVTNSRYPEEICEGQAQVNQGSMMGLSYAQLDVSTEEMENVDLYMQSLSVPARRNVNNEQVIKGEQNFYKAKCHLCHVTTLHTKPRGSILLNGTRLPWLGSQTIHPYSDFLLHDMGSEIMGVGLNDNYVSGLARGNEWRTTPLWGIGLQETVNGHTYFLHDGRARNYIEAIMWHGGEGEASKNLFKKMSKEDRNALVAFLKSL,not soluble
9,MNGQNFNEMLHDEQVFAEFMVPNAHTTPNLWRIQQQNQENQIPQNFQHLDFQYFQYQNQKQEVVHGAHCMGTVGSSWNEQVAVKKPSSSQSRKGGKNKEEAREKNHQKNKALLEMLNQVDPAVIDAEIEEQKEKQRLRKNRGRYDPIGAHGAQQGTRGVQNEVQYHRNFQNNNNNNS,not soluble
10,MNGRVDYLVTEEEINLTRGPSGLGFNIVGGTDQQYVSNDSGIYVSRIKENGAAALDGRLQEGDKILSVNGQDLKNLLHQDAVDLFRNAGYAVSLRVQHRLQVQNGPI,soluble
11,MNGYQITFFTQQDRHHAGKPLADWLMHLAAEMGLRGATLIPGSEGMGHDKRFHSVHFFELSDQLLEVVMVVSEEEADQLFARLRAEGVRLFYVKVAAEFGIMD,not soluble
12,MNIDLTPYYAEPGEQPFSARRMAMPWRNHVPLSPEQIPAGWQTLKQQSVPARKRLLYLHIPFCATHCTFCGFYQNKLRDDSTATYTRYLLQELAMEADSPLHQSAPIHAVYFGGGTPTALAADELSQIIRAIRTSLPLAPDCEITVEGRAMDFDDERIDACLDAGANRFSIGIQTFDTRIRQRMARTSDKQQSIRFLERLCGRDRAAVVCDLMFGLPGQTPEIWREDLAIVSDLPLDGVDLYALNLLPTTPLAKAAENQRVALPDVVARRDFYRTGAAFLADSGWHQLSNSHWARTTRERNLYNLLIKQGADCLAMGSGAGGNINGQAYMMERSLERYYQQIDQGQKPIMMMTPASSTGPWQHQLQAGIEVGRIKLPQLTQHARELQPLLSQWHQAGLTCDDSTCLRLTNDGRFWANNLMQALQQIIPQLNAEEHAHLEHHHHHH,soluble
13,MNIELRHLRYFVAVAEELHFGRAAARLNISQPPLSQQIQALEQQIGARLLARTNRSVLLTAAGKQFLADSRQILSMVDDAAARAERLHQGEAGELRIGFTSSAPFIRAVSDTLSLFRRDYPDVHLQTREMNTREQIAPLIEGTLDMGLLRNTALPESLEHAVIVHEPLMAMIPHDHPLANNPNVTLAELAKEPFVFFDPHVGTGLYDDILGLMRRYHLTPVITQEVGEAMTIIGLVSAGLGVSILPASFKRVQLNEMRWVPIAEEDAVSEMWLVWPKHHEQSPAARNFRIHLLNALR,not soluble
14,MNIERKQAKQKEISSGHSFLEWGMTILKMPPAKRIKMVRDGVKVTHLVGAGRYYGISQAKLSKLLGISDATITRKIRSSGKLGPLESERLARIALIEAEAEKVFDSSDLAKRWMLESNLALGESPLSLLDTDMGADEVRKVLASIAYGGIA,not soluble
15,MNIGVIILAAGEGKRFGGDKLLAKIDNTPIIMRTIRIYGDLEKIIIVGKYVNEMLPLLMDQIVIYNPFWNEGISTSLKLGLRFFKDYDAVLVALGDMPFVTKEDVNKIINTFKPNCKAVIPTHKGERGNPVLISKSLFNEIEKLRGDVGARVILNKIKIEELCFIECSEGVLIDIDKKEDLMRLRDFHPLEHHHHHH,soluble
16,MNIKFKPVEPADRSAITTITFSSVARICDLAFSNLYCWSFVYGTSWAIVEGCLIIRFKPKSRSHPVYLFPVGADPEQVVAAAHRLKAEVVHEDYPLIFMGVTPDIHRCIEEHCSAEYYFIEDEAYCDYIYERESLATLSGKKLQAKRNHINKFVSLYPDYTYDPVKDSDAEECLMLAHLWLDSRGDQDGRELEVEMVERAFRHRQELGLSGGVLRVGGRVVAFCLGSPINTDTFGVHIEKADAMVEGAFAMINREFARSIPDTFRYINREEDLGLPGLRQAKLSYRPAILLPKQTAILRRDHDRIQA,not soluble
17,MNISIRAETPGDIDAIAHLTEAAFRNETHSSHTEQYIVDALRRAGALTLSLVAEANGQVIGHIAASPVTIDGEAGDWYGLAPLSVAPGRQRQGLGSQLVRRLLTELRLLPAGGCVVLGEPTYYSRFGFRVESGLALPGVPAEYFQAQSFSGRMAQGIVAFHAAFDASG,not soluble
18,MNIVEPLRDKDDIQAMKDYLSSWNEKYYMLFLLGINTGFRVGDILKLKVKDVQGWHIKVREQKTGKYKSIKMTRPLKNELREFVKDKELHEYLFQSRVGKNKALSYKTVYWFLKRAAEDLGIDNVGTHTMRKTFGYHYYKKYKNVADLMSLFNHSSPAVTLIYICVRQDELDTKMSNFSL,not soluble
19,MNIVLMGLPGAGKGTQAEQIIEKYEIPHISTGDMFRAAIKNGTELGLKAKSFMDQGNLVPDEVTIGIVHERLSKDDCQKGFLLDGFPRTVAQADALDSLLTDLGKKLDYVLNIKVEQEELMKRLTGRWICKTCGATYHTIFNPPAVEGICDKDGGELYQRIDDKPETVKNRLDVNMKQTQPLLDFYSQKGVLKDIDGQQDIKKVFVDINDLLGGLR,soluble
20,MNIYVLMKRTFDTEEKIVIKNGAIYDGEAEFIINPYDEYAIEEAIQVRDAQGGEVTVVTVGGEDSEKELRTALAMGCDKAVLINIEDDVENGDQFTTAKVLAEYLKDKDADLILGGNVAIDGASGQVGPRVAEALNIPYVTTITKLEIDGTNVKIERDVEGDTEVVETSLPVLVTAQQGLNEPRYPSLPGIMKAKKKPLEELELDDLDLEEDDVEAKTKTIEIYLPPKKDAGKVLQGELQDQVKELVSLLHTEAKVI,not soluble
21,MNKIAIQKPNIPENLQTADFHDAVTQDDVISMHLFEDCTICGEDIERLCVEKTVFRNVVFIDVSFRHIELTDVIFEKCDLSNADFSGAVIHRTSVKQSKMVGMNVAEATLRNVSFEECHGHFSSFSYSNMKQVRFDHCALMQSECSDTVLQQTHFDGCELEGASFTGTSLQNMDISTCRFEQLHVSLDKLKGCKIAPEHAIAFARALGAVIVLEHHHHHH,soluble
22,MNKILIAAASSGAGKTTVTLGIMQALKKRGFAVQPFKVGPDYIDTNYHQAITGVASINLDSFLIDDDEMLASLFQKHGESADISVIEGVMGLFDGLGTDRDNASTSFIAKCTKTPVILVVDGKAISTSAAAIVDGFNRFDPELKIAGVIINRVASENHFSLIKGAIERYTDVPVLGYLPKNAAVALPERHLGLVPQEEMTELEAKWELLSDLITTHVDLDKLLEISKSSENLSTSKAQMKVADFSGLRVAYALDAAFHFYYQDNLDLIRLTGAELIPFSPLEDNEVPEADFIYIGGGFPEIFAKQLNDNRSMRKSILAAHEKGIPIYAECGGLMYLGSSLEMEGKQYEMVGVFNGISKMTTRLRKFGYCIAEPLEETLIGKKGMSIRGHEFHHSVFETTETACMKLSKKRDGEIVKEWRGGYQKGNTFASYLHIHFYQNPAILMQMFGAGKRLEHHHHHH,soluble
23,MNKISPLGSNWNEFEQQIFNEEEIRESNLRVALIKELITSRQQLGISQKQLETLSGVKQPMIARIEKGQTNPQLETLLKLLAPLGKTLSIVPLRVKNA,not soluble
